# Test results from PMC2603577 (Journal of immunology (Baltimore, Md. : 1950), 2008).
# B1: IFN-γ: recombinant cytokine interferon-γ (protein, UniProt P01579 24-161, looked up)
# Interferon gamma: QDPYVKEAENLKKYFNAGHSDVADNGTLFLGILKNWKEESDRKIMQSQIVSFYFKLFKNFKDDQSIQKSVETIKEDMNVKFFNSNKKKRDDFEKLTNYSVTDLNVQRKAIHELIQVMAELSPAAKTGKRKRSQMLFRG
# Key:
# human MDM [1] = tested on: human MDM
# human microglia [2] = tested on: human microglia
# human MDM [3] = test: Pulse-chase of fibrillar 125I-Aβ in MDM chased with recombinant cytokines; assay type: cell-based; details: cytokines at final 10 ng/ml, chase 120 hrs, vs control MDM
# IDE = test: Immunoblot of MDM lysates, IDE; assay type: cell-based, human; details: cytokines 10 ng/ml each, 120 hrs, vs control
# HSP70 = test: Immunoblot of MDM lysates, HSP70; assay type: cell-based, human; details: cytokines 10 ng/ml each, 120 hrs, vs control
# HSC70 = test: Immunoblot of MDM lysates, HSC70; assay type: cell-based, human; details: cytokines 10 ng/ml each, 120 hrs, vs control
# human microglia [4] = test: Pulse-chase of fibrillar 125I-Aβ in microglia chased with recombinant cytokines; assay type: cell-based; details: cytokines at final 10 ng/ml, chase 120 hrs, vs control
molecule,measurement,setting,value
"Fibrillar Aβ40: iodinated synthetic Aβ40 peptide aggregated with stirring at 37°C for 3 days, precipitated fraction",extracellular TCA-soluble fraction (degraded form) at saturation (% total count),human MDM [1],~40%
same,intracellular retention at saturation (% total count),human MDM [1],approximately 50%
same,extracellular TCA-insoluble fraction at saturation (% total count),human microglia [2],~30%
same,extracellular TCA-soluble fraction at saturation (% total count),human microglia [2],approximately 10%
same,intracellular retention at saturation (% total count),human microglia [2],approximately 60%
IL-4: recombinant cytokine interleukin-4,effect on intracellular retention of fibrillar Aβ40,human MDM [3],significantly reduced
same,effect on intracellular retention of fibrillar Aβ42,human MDM [3],suppressed
TNF-α,reduction of IDE expression (band intensity / β-actin),IDE,no effect
same,reduction of HSP70 expression (band intensity / β-actin),HSP70,no effect
same,reduction of HSC70 expression (band intensity / β-actin),HSC70,no effect
"Fibrillar Aβ42: iodinated synthetic Aβ42 peptide aggregated with stirring at 37°C for 3 days, precipitated fraction",extracellular TCA-soluble fraction (degraded form) at saturation (% total count),human MDM [1],~40%
same,intracellular retention at saturation (% total count),human microglia [2],~42%
IL-13: recombinant cytokine,effect on intracellular retention of fibrillar Aβ40,human MDM [3],no effect
IL-10: recombinant cytokine,effect on intracellular retention of fibrillar Aβ40,human MDM [3],significantly reduced
same,effect on intracellular retention of fibrillar Aβ42,human MDM [3],suppressed
TGF-β1: recombinant cytokine transforming growth factor-β1,effect on intracellular retention of fibrillar Aβ40,human MDM [3],significantly reduced
"Oligomeric Aβ42: 125I-Aβ42 incubated in PBS at 4°C for 24hs, supernatant fraction",extracellular TCA-soluble fraction (degraded form) at saturation (% total count),human MDM [1],~40%
"Oligomeric Aβ40: 125I-Aβ40 incubated in PBS at 4°C for 24hs, supernatant fraction",extracellular TCA-soluble fraction (degraded form) at saturation (% total count),human MDM [1],~75%
IFN-γ: recombinant cytokine interferon-γ,reduction of IDE expression (band intensity / β-actin),IDE,no effect
same,reduction of HSP70 expression (band intensity / β-actin),HSP70,no effect
same,reduction of HSC70 expression (band intensity / β-actin),HSC70,no effect
B1,effect on intracellular retention of fibrillar Aβ40,human MDM [3],significantly enhanced
same,effect on intracellular retention of fibrillar Aβ42,human MDM [3],significantly enhanced
same,effect on intracellular retention of fibrillar Aβ40,human microglia [4],significantly enhanced
same,effect on intracellular retention of fibrillar Aβ42,human microglia [4],enhanced
